Measured values published in patent US7109015B2, “Removal of N-terminal methionine from proteins by engineered methionine aminopeptidase” (Academia Sinica, priority 2004, dated 2006).
Read-outs that look alike come from different tables or passages of the source. Marks after values point to notes of the source that are not given here.

How the values were obtained:
Met-tagged onconase = assay: In vivo catalytic activity of MetAPs co-expressed with Met-tagged onconase in E. coli BL21(DE3); N-terminus by Edman degradation; assay type: cell-based; conditions: in vivo in E. coli
Description: Residues Tyr168, Met206 and Gln233 in the putative substrate-binding site of E. coli MetAP were mutated by site-directed mutagenesis based on the crystal structure and amino acid sequence alignment of MetAPs (Ben-Bassat et al., 1987; Lowther et al., 1999; Walker et al., 1999). For the expression of secretory ribonucleases, the ribonuclease gene was cloned and expressed as described previously (Huang et al., 1998).
Most of the co-expressed target protein, e.g., onconase or RC-RNase L1, existed in insoluble cell lysate. They were denatured, renatured and purified as described previously (Liao et al., 2003). The purified ribonucleases were stored in 20 mM sodium phosphate, pH 7.0, for pyroglutamate formation at the N-terminus. Alternatively, the ribonuclease secreted into culture medium through pe1B system was concentrated and purified to electrophoretical homogeneity at a yield of 1˜5 mg per 1 liter of culture (Huang et al., 1998).

RC-RNase4 = assay: In vivo Met removal, co-expression in E. coli, RC-RNase 4 substrate; assay type: cell-based, Rana catesbeiana; conditions: substrate MAAWA (SEQ ID NO:15)-RC4; solubility −
Procedure: The MetAP was expressed alone or co-expressed with a target protein, i.e., onconase and RC-RNaseL1, in E. coli BL21 (DE3) in the presence of 0.5 mM IPTG at 37° C.
Proteins in the cell pellet or in the soluble fraction were separated by 13.3% SDS-PAGE and contact-transferred to ProBlott™ membrane (Applied Bioystems) in transfer buffer (10 mM Tris-HCl, pH 7.5, 50 mM NaCl, 2 mM EDTA, 0.5 mM 2-mercaptoethanol) overnight. The five N-terminal residues of the transferred protein were determined by Edman degradation. The percentage of Met removal was calculated by dividing the amount of proteins initiated with the penultimate residue with the amount of total proteins (including proteins initiated with the penultimate residue and unprocessed protein initiated with Met) after the first degradation cycle. In theory, this percentage should remain the same after each degradation cycle. Therefore, in order to avoid experimental variation, the same calculation was made from five consecutive degradation cycles, e.g., M, Q, N, W and L for onconase. The efficiency of Met removal is reported as the mean values of at least three cycles.

synthetic oligopeptides = assay type: biochemical; conditions: for Specific activity (unit/mg): 4 mM oligopeptide, pH 7.5, 37° C.
Procedure: The oligopeptide substrates used in this experiment were synthesized on the 432A Synergy peptide synthesizer (Applied Biosystems, Foster, Calif., USA). The enzymatic activity of purified MetAP was assayed as described by Ben-Bassat et al., 1987. Briefly, the diluted MetAP enzyme in 10 μl was added to 90 μl of the substrate solution containing 4 mM oligopeptide, 0.1 M potassium phosphate buffer, pH 7.5 and 0.2 mM CoCl2, incubated at 37° C. for 10 min and stopped in boiling water for 2 min. After addition of 0.9 ml of color development mixture containing 0.2 mg of L-amino acid oxidase, 0.03 mg of horseradish peroxidase and 0.2 mg of o-dianisidine in 0.1 M Tris-HCl, pH 7.4, the mixtures were incubated for 10 min at 37° C., and the optical density at 440 nm was recorded. One unit of activity is defined as 1 μmol of amino acids produced per min under the assay conditions and the pure Met was used as standard. The N-terminal residues of the MetAP-treated oligopeptide were further verified by Edman degradation.

[1] = molecular target: Met-tagged onconase with different penultimate residue (Escherichia coli, UniProt P0AE18); conditions: adapted from Hirel et al., 1989, cited from earlier work
[2] = E. coli MetAP mutations; Chiu et al. 1999; cited from earlier work
[3] = substrate MAA-Onc, listed as wild type E. coli MetAP

B1: MetAP-YMQ: wild type E. coli Met aminopeptidase (SEQ ID NO:1) (protein, listed as Escherichia coli)
chain: MAISIKTPEDIEKMRVAGRLAAEVLEMIEPYVKPGVSTGELDRICNDYIVNEQHAVSACLGYHGYPKSVCISINEVVCHGIPDDAKLLKDGDIVNIDVTVIKDGFHGDTSKMFIVGKPTIMGERLCRITQESLYLALRMVKPGINLREIGAAIQKFVEAEGFSVVREYCGHGIGRGFHEEPQVLHYDSRETNVVLKPGMTFTIEPMVNAGKKEIRTMKDGWTVKTKDRSLSAQYEHTIVVTDNGCEILTLRKDDTIPAIISHDE
- Catalytic activity (%): percent of penultimate residue removed (Met-tagged onconase; substrate MAA-Onc): 77%
- Catalytic activity (%): removal of N-terminal Met (Met-tagged onconase; substrate MAA-Onc): 85%
- Catalytic activity (%): percent of penultimate residue removed (Met-tagged onconase; [3]): removed
- Catalytic activity (%): removal of N-terminal Met (Met-tagged onconase; [3]): removed
- Catalytic activity (%): percent of penultimate residue removed (Met-tagged onconase; substrate MAG-Onc): 63%
- Catalytic activity (%): removal of N-terminal Met (Met-tagged onconase; substrate MAG-Onc): 80%
- Catalytic activity (%): removal of N-terminal Met (Met-tagged onconase; substrate MQD-Onc, listed as wild type MetAP): failed altogether
- Catalytic activity (%): removal of N-terminal Met (Met-tagged onconase; substrate MQD-Onc, listed as wild type enzyme): no activity
- Catalytic activity (%): percent of penultimate residue removed (RC-RNase4): removed
- Catalytic activity (%): removal of N-terminal Met (RC-RNase4): removed
- In vitro catalytic activity (synthetic oligopeptides; oligopeptides ranging from tetra- to dodecapeptides with Ala at the penultimate site): high catalytic activity
- Specific activity (unit/mg) (synthetic oligopeptides; substrate MADY (SEQ ID NO:7)): 138 ± 8 unit/mg
- Specific activity (unit/mg) (synthetic oligopeptides; substrate MADYLT (SEQ ID NO:8)): 138 ± 6 unit/mg
- Specific activity (unit/mg) (synthetic oligopeptides; substrate MQDYLT (SEQ ID NO:9)): 0.43 ± 0.01 unit/mg
- Specific activity (unit/mg) (synthetic oligopeptides; substrate […] (SEQ ID NO:5)): 85 ± 13 unit/mg
- Specific activity (unit/mg) (synthetic oligopeptides; substrate […] (SEQ ID NO:6)): 0.62 ± 0.08 unit/mg
- Catalytic activity (%): efficiency of Met removal by wild type MetAP ([1]; substrate MAD-Onc): 100%
- Catalytic activity (%): efficiency of Met removal by wild type MetAP ([1]; substrate MDD-Onc): ~20%
- Catalytic activity (%): efficiency of Met removal by wild type MetAP ([1]; substrate MED-Onc): 0%
- Catalytic activity (%): efficiency of Met removal by wild type MetAP ([1]; substrate MFD-Onc): 0%
- Catalytic activity (%): efficiency of Met removal by wild type MetAP ([1]; substrate MGD-Onc): 100^c %
- Catalytic activity (%): efficiency of Met removal by wild type MetAP ([1]; substrate MHD-Onc): 0%
- Catalytic activity (%): efficiency of Met removal by wild type MetAP ([1]; substrate MID-Onc): ~20%
- Catalytic activity (%): efficiency of Met removal by wild type MetAP ([1]; substrate MKD-Onc): 0%
- Catalytic activity (%): efficiency of Met removal by wild type MetAP ([1]; substrate MLD-Onc): ~20%
- Catalytic activity (%): efficiency of Met removal by wild type MetAP ([1]; substrate MMD-Onc): 0%
- Catalytic activity (%): efficiency of Met removal by wild type MetAP ([1]; substrate MND-Onc): ~20%
- Catalytic activity (%): efficiency of Met removal by wild type MetAP ([1]; substrate MPD-Onc): 80–90%
- Catalytic activity (%): efficiency of Met removal by wild type MetAP ([1]; substrate MQD-Onc): 0%
- Catalytic activity (%): efficiency of Met removal by wild type MetAP ([1]; substrate MRD-Onc): 0%
- Catalytic activity (%): efficiency of Met removal by wild type MetAP ([1]; substrate MSD-Onc): 80–90%
- Catalytic activity (%): efficiency of Met removal by wild type MetAP ([1]; substrate MTD-Onc): 80–90%
- Catalytic activity (%): efficiency of Met removal by wild type MetAP ([1]; substrate MVD-Onc): 80–90%
- Catalytic activity (%): efficiency of Met removal by wild type MetAP ([1]; substrate MWD-Onc): 0%
- Catalytic activity (%): efficiency of Met removal by wild type MetAP ([1]; substrate MWD-Onc, listed as wild type MetAP): inactive
- Catalytic activity (%): efficiency of Met removal by wild type MetAP ([1]; substrate MYD-Onc): 0%
- Catalytic activity (%): efficiency of Met removal by wild type MetAP ([1]; substrate MYD-Onc, listed as wild type MetAP): inactive

B2: C59S: E. coli MetAP mutation in the putative substrate-binding pocket (protein, UniProt P0AE18 2-264, looked up, variant C59S)
Methionine aminopeptidase: AISIKTPEDIEKMRVAGRLAAEVLEMIEPYVKPGVSTGELDRICNDYIVNEQHAVSASLGYHGYPKSVCISINEVVCHGIPDDAKLLKDGDIVNIDVTVIKDGFHGDTSKMFIVGKPTIMGERLCRITQESLYLALRMVKPGINLREIGAAIQKFVEAEGFSVVREYCGHGIGRGFHEEPQVLHYDSRETNVVLKPGMTFTIEPMVNAGKKEIRTMKDGWTVKTKDRSLSAQYEHTIVVTDNGCEILTLRKDDTIPAIISHDE
- Catalytic activity, % activity of the wild type [2]: do not reduce catalytic activity

B3: C70S: E. coli MetAP mutation in the putative substrate-binding pocket (protein, UniProt P0AE18 2-264, looked up, variant C70S)
Methionine aminopeptidase: AISIKTPEDIEKMRVAGRLAAEVLEMIEPYVKPGVSTGELDRICNDYIVNEQHAVSACLGYHGYPKSVSISINEVVCHGIPDDAKLLKDGDIVNIDVTVIKDGFHGDTSKMFIVGKPTIMGERLCRITQESLYLALRMVKPGINLREIGAAIQKFVEAEGFSVVREYCGHGIGRGFHEEPQVLHYDSRETNVVLKPGMTFTIEPMVNAGKKEIRTMKDGWTVKTKDRSLSAQYEHTIVVTDNGCEILTLRKDDTIPAIISHDE
- Catalytic activity, % activity of the wild type [2]: 54%

B4: Y65F: E. coli MetAP mutation in the putative substrate-binding pocket (protein, UniProt P0AE18 2-264, looked up, variant Y65F)
Methionine aminopeptidase: AISIKTPEDIEKMRVAGRLAAEVLEMIEPYVKPGVSTGELDRICNDYIVNEQHAVSACLGYHGFPKSVCISINEVVCHGIPDDAKLLKDGDIVNIDVTVIKDGFHGDTSKMFIVGKPTIMGERLCRITQESLYLALRMVKPGINLREIGAAIQKFVEAEGFSVVREYCGHGIGRGFHEEPQVLHYDSRETNVVLKPGMTFTIEPMVNAGKKEIRTMKDGWTVKTKDRSLSAQYEHTIVVTDNGCEILTLRKDDTIPAIISHDE
- Catalytic activity, % activity of the wild type [2]: do not reduce catalytic activity

B5: Y62F: E. coli MetAP mutation in the putative substrate-binding pocket (protein, UniProt P0AE18 2-264, looked up, variant Y62F)
Methionine aminopeptidase: AISIKTPEDIEKMRVAGRLAAEVLEMIEPYVKPGVSTGELDRICNDYIVNEQHAVSACLGFHGYPKSVCISINEVVCHGIPDDAKLLKDGDIVNIDVTVIKDGFHGDTSKMFIVGKPTIMGERLCRITQESLYLALRMVKPGINLREIGAAIQKFVEAEGFSVVREYCGHGIGRGFHEEPQVLHYDSRETNVVLKPGMTFTIEPMVNAGKKEIRTMKDGWTVKTKDRSLSAQYEHTIVVTDNGCEILTLRKDDTIPAIISHDE
- Catalytic activity, % activity of the wild type [2]: do not reduce catalytic activity

B6: F177L: E. coli MetAP mutation in the putative substrate-binding pocket (protein, UniProt P0AE18 2-264, looked up, variant F177L)
Methionine aminopeptidase: AISIKTPEDIEKMRVAGRLAAEVLEMIEPYVKPGVSTGELDRICNDYIVNEQHAVSACLGYHGYPKSVCISINEVVCHGIPDDAKLLKDGDIVNIDVTVIKDGFHGDTSKMFIVGKPTIMGERLCRITQESLYLALRMVKPGINLREIGAAIQKFVEAEGFSVVREYCGHGIGRGLHEEPQVLHYDSRETNVVLKPGMTFTIEPMVNAGKKEIRTMKDGWTVKTKDRSLSAQYEHTIVVTDNGCEILTLRKDDTIPAIISHDE
- Catalytic activity, % activity of the wild type [2]: do not reduce catalytic activity
